Source: article PMC7801515

Assays:
Test in all cases: flow cytometry on cells
[1] = biological target: SARS-CoV-2 S glycoprotein Y421A, full-length, cell surface-expressed (SARS-CoV-2) (UniProt P0DTC2)
[2] = biological target: SARS-CoV-2 S glycoprotein T415A, full-length, cell surface-expressed (SARS-CoV-2) (UniProt P0DTC2)
[3] = biological target: SARS-CoV-2 S glycoprotein Y473A, full-length, cell surface-expressed (SARS-CoV-2) (UniProt P0DTC2)
[4] = biological target: SARS-CoV-2 S glycoprotein R457A, full-length, cell surface-expressed (SARS-CoV-2) (UniProt P0DTC2)

Measured: percent reduction in binding (MFI relative to wild type)

P2C-1F11 monoclonal antibody
> 50%: [1] | [2] | [3] | [4]
